In US20240042020A1:

Target: human GARP-TGF-β1 complex (human) (UniProt Q14392)

minimal concentration that maximally inhibits TGF-β1 release and signaling (reporter assay): 0.8 µg/mL
Substance: livmoniplimab (antibody)
